Experimental data published in article PMC5752445, “Secretory leukocyte protease inhibitor (SLPI) as a potential target for inhibiting metastasis of triple-negative breast cancers” (Oncotarget, 2017).

Biological target: T1, GAL4-Rb fusion protein (pBIND-Rb) (UniProt P06400 1-928)
T1 construct: source: HEK293T, transiently transfected, mammalian two-hybrid fusion
T1 sequence (looked up): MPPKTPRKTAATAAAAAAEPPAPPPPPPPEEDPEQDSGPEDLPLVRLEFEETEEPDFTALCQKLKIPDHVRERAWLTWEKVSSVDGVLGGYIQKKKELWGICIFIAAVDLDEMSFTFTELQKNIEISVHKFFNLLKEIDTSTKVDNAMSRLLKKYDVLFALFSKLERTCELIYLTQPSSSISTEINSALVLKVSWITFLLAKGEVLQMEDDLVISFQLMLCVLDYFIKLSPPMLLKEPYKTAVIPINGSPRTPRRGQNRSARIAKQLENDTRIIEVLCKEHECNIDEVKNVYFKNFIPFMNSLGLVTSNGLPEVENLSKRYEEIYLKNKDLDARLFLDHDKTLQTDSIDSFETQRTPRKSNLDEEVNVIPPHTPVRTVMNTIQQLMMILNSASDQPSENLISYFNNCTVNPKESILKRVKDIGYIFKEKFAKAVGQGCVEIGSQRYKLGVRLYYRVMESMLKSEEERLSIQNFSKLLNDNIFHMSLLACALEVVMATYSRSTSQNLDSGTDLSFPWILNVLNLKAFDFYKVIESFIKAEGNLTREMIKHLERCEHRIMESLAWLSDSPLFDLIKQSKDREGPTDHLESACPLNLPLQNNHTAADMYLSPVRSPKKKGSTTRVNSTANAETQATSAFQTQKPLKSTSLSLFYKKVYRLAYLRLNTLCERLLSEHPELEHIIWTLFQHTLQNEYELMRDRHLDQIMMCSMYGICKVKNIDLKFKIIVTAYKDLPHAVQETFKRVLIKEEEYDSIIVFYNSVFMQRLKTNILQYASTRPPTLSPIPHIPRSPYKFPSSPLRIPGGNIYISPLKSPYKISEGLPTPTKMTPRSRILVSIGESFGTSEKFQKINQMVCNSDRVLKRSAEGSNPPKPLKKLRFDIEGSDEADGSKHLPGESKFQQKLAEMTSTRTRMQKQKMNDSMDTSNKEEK
Experiment: two-hybrid; mammalian two-hybrid in HEK293T: pBIND (GAL4 DNA-binding domain) and pACT (VP16 activation domain) fusions with pG5luc reporter; luciferase read 48 h after transfection; negative controls pBIND and pACT vectors
Conditions: partners not purified

B1: VP16-SLPI fusion protein (pACT-SLPI) (natural protein, UniProt P03973 1-132, looked up)
chain: MKSSGLFPFLVLLALGTLAPWAVEGSGKSFKAGVCPPKKSAQCLRYKKPECQSDWQCPGKKRCCPDTCGIKCLDPVDTPNPTRRKPGKCPVTYGQCLMLNPPNFCEMDGQCKRDLKCCMGMCGKSCVSPVKA
notes: the legend names only pACT constructs of both; source: HEK293T, transiently transfected, mammalian two-hybrid fusion
  fold activation of the reporter over the negative controls: ~7 times
